According to US20190330339A1 (published 2019):

T1: human LAG-3-hFc (human, UniProt P18627 23-450)
T1 construct: also called human LAG3-Fc; not shown: human Fc (hFc)
T1 sequence: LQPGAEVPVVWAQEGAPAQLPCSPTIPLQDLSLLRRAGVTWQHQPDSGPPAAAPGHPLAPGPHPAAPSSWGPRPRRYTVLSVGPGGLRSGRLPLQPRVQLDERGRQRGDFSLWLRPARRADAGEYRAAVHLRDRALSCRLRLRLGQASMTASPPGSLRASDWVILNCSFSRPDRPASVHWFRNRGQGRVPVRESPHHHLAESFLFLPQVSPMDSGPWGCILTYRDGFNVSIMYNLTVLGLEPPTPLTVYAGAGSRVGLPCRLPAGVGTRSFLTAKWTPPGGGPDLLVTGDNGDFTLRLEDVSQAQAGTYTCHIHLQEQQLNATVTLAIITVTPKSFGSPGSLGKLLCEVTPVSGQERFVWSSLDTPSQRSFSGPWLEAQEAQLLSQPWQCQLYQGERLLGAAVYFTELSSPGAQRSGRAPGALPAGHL

T2: human LAG-3 expressed on cells (human, UniProt P18627 23-525)
T2 construct: the transgene of the cell lines is not tied to it by name; also called hLAG-3; 3A9.hLAG-3
T2 sequence: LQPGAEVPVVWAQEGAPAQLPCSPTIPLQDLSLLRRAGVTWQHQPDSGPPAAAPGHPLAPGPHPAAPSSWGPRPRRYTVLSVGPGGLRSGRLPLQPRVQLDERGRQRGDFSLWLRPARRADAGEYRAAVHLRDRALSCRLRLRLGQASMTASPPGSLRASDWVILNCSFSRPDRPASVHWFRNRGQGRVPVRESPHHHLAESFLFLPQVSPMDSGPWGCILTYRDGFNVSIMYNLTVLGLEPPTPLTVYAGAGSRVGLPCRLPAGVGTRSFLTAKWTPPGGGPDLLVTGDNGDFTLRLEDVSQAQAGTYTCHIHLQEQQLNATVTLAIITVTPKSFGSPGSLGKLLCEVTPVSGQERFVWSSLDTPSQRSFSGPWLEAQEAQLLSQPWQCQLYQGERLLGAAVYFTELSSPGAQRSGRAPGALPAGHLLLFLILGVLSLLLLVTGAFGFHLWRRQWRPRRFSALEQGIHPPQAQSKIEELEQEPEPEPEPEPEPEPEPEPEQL

B1: F0237611B09-FLAG3-HIS6 (VHH)
VHH: EVQLVESGGGLVQAGGSLRLSCAASGRTFSDYVMGWFRQARGNEREFVAAISESGGRTHYADAVKGRFTISRDNAKNTLYLQMNSLKPEDTAVYYCATTLLWWTSEYAPIKANDYDYWGQGTLVTVSS
notes: Original monovalent anti-human LAG-3 Nanobody; also called F0237611B09-FLAG-His6; F02376611B09
B2: F023700275 (1PD102C12(A14P, A74S, K83R)-FLAG3-HIS6) (VHH)
VHH: EVQLVESGGGLVQPGGSLRLSCAASGSIASIHAMGWFRQAPGKEREFVAVITWSGGITYYADSVKGRFTISRDNSKNTVYLQMNSLRPEDTAIYYCAGDKHQSSWYDYWGQGTLVTVSS
notes: Monovalent anti-human PD-1 Nanobody, parent of F023700706

Columns and labels:
[1] = target: T1, human LAG-3-hFc; experiment: flow cytometry ligand competition; LAG-3-hFc on Daudi cells
Method: A Nanobody dilution series was prepared in assay buffer: HBSS/2% FBS. Prior to the experiment, Fc receptors on the Daudi cells were blocked with human Fc block (BD Pharmingen, 564220) and 5 μg/mL goat IgG (Jackson ImmunoResearch, 005-000-003) for 30 minutes at 4° C. […] 1×10⁵ cells/well were seeded in V-bottom 96-well plates and resuspended in 100 μL/well of the Nanobody/ligand dilution. After 30 minutes incubation at 4° C., the cells were washed and resuspended in 100 μL/well PE-labeled Goat anti-human IgG (Southern Biotech, 2043-09). Samples were incubated for 15 minutes at 4° C., washed, and resuspended in 100 μL/well of 5 nM TOPRO3 (LifeTechnologies, T3606) solution before analysis on FACS CANTO II (BD).

[2] = target: T2, human LAG-3 expressed on cells; experiment: flow cytometry on 3A9 cells over-expressing human LAG-3
Method: Binding to cell-expressed human LAG-3 was evaluated on human LAG-3 over-expressing 3A9 cells. A Nanobody dilution series was prepared in assay buffer: PBS/10% FBS/0.05% sodium azide. 1×10⁵ cells/well were transferred to a 96-well V-bottom plate and resuspended in 100 μL Nanobody dilution. After 30 minutes incubation at 4° C., the cells were washed with 100 μL/well assay buffer and resuspended in 100 μL/well of 1 μg/ml anti-FLAG (Sigma, F1804). […] Samples were incubated for 30 minutes at 4° C., washed, and resuspended in 100 μL/well of 5 nM TOPRO3 (LifeTechnologies, T3606) solution before analysis on FACS CANTO II (BD).

[3] = target: T3, human PD-1 expressed on cells (human, UniProt Q15116 25-288); experiment: flow cytometry ligand competition on CHO cells over-expressing human PD-1
T3 construct: the transgene of the cell lines is not tied to it by name; also called hPD-1; CHO.hPD-1
T3 sequence (Q15116 25-288 limits assumed): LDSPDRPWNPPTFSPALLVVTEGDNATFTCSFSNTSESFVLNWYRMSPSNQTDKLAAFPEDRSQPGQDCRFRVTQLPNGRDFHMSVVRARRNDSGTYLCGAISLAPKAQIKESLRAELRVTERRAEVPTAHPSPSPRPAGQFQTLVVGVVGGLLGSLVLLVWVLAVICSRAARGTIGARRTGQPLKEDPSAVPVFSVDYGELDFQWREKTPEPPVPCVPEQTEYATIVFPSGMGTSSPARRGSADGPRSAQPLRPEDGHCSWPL
Method: Ligand competition assays were performed on human PD-1 over-expressing CHO cells. A Nanobody dilution series was prepared in assay buffer: PBS/10% FBS/0.05% sodium azide. […] 2×10⁴ cells/well were seeded in V-bottom 96-well plates and resuspended in 200 μL/well of the Nanobody/ligand dilution. After 90 minutes incubation at 4° C., the cells were washed with 100 μL/well assay buffer and resuspended in 100 μL/well PE-labeled Goat anti-human IgG (Southern Biotech, 2043-09). Samples were incubated for 30 minutes at 4° C., washed, and resuspended in 100 μL/well of 5 nM TOPRO3 (LifeTechnologies, T3606) solution before analysis on FACS CANTO II (BD).

| Binder | binding result [1] | binding result [2] | binding result [3] |
| --- | --- | --- | --- |
| B1 | binds | binds |  |
| B2 |  |  | binds |
